The results in this text go back to patent US20190062396A1.

The target in this test is thyrotropin receptor (TSHR) (UniProt P16473). Briefly: cell-based or functional assay.
Sequence of UniProt P16473 (P16473 21-764 limits assumed): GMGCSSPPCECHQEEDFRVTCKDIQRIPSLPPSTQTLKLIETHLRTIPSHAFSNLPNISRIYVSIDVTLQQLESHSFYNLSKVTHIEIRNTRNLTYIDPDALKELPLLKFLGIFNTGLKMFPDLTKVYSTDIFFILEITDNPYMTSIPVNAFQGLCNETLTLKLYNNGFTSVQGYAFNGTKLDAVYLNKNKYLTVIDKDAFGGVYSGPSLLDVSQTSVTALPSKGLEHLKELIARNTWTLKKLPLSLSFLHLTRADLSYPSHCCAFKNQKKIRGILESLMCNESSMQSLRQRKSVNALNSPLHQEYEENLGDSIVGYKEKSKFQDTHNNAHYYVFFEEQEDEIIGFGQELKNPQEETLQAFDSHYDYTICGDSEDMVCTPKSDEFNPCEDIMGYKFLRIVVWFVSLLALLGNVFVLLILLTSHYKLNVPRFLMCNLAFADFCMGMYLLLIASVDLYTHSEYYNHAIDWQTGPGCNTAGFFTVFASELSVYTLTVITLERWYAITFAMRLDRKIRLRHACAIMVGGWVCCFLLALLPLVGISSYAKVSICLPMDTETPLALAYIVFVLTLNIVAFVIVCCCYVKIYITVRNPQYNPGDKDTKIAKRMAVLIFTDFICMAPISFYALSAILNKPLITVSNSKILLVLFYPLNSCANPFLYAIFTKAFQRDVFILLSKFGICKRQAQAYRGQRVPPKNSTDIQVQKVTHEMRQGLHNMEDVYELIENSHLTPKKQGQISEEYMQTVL

“recombinant human thyroid stimulating hormone (rhTSH) produced and purified by the method of the invention (from UniProt P01215 25-116; P01222 21-138) (ligand)” displayed an EC50 of cAMP induction (RLU, HitHunter cAMP XS+ luminescence) in CHO-K1 cells expressing TSHR, relative to the control group (Thyrogen) of 99%.
